Measured values published in patent publication US20030180295A1, “Angiocidin: a Cys-Ser-Val-Thr-Cys-Gly specific tumor cell adhesion receptor” (Philadelphia Health and Education Corporation, priority 1999, published 2003).
No end group written: not given here. *: point of attachment. Acm = CC(=O)NC*

Legend:
TSP-1 = TSP-1 (Homo sapiens, UniProt P07996); assay: Affinity Sensor System (resonant mirror biosensor): binding to TSP-1 coupled to cuvette; details: peptide alone, TSP-1 immobilized in cuvette
Method: (§1) Binding of undenatured (in the ligand blot protocol above, the receptor is denatured by SDS) recombinant receptor to TSP-1 was evaluated using the Affinity Sensor System, Cambridge, UK. This is an optical binding method that uses a cuvette to which either ligand or receptor is covalently coupled. A laser beam is used to detect bound proteins to the protein-derivatized cuvette surface. This method is highly sensitive and measures both the association and dissociation rate constants for ligand receptor interactions. The instrument assumes that one molecule of receptor binds one molecule of TSP-1 and calculates the dissociation constant (KD) according to the following relationships:
1) kass[R][TSP-1]=kdiss[R-TSP-1] at equilibrium, where kass is the second order rate constant for association and kdiss is the first order rate constant for dissociation
2) KD=[R][TSP-1]/[R-TSP-1]=kdiss/kass
3) [R-TSP-1]t=[R-TSP-1]eq[1-exp(-kont)], where the instrument response measure in arc seconds is proportional to receptor-TSP-1 complex R-TSP-1].
4) kon=kass[L]+kdiss where kon is the pseudo-first order rate constant for receptor TSP-1 interaction.
(§2) About 1 μg of TSP-1 was coupled to the cuvette through its amino groups to COOH groups on the cuvette surface. Unreacted groups on the cuvette surface were then blocked with ethanolamine and albumin. […] A dissociation constant of […] was calculated from a plot of the pseudo first order rate constant for association versus the concentration of the receptor, as shown in FIG. 7. Instrument response vs time readings shown in FIG. 8, where the instrument response is proportional to the concentration of receptor-TSP-1 complex, were used to plot the data points on FIG. 7.
(§3) […] The peptides used were Val-Cys-His-Ser-Lys-Thr-Arg (SEQ ID NO: 8), Val-Cys(Acm)-His-Ser-Lys-Thr-Arg (SEQ ID NO: 9), and Pro-His-Ser-Arg-Asn (SEQ ID NO: 10). The first two peptides are derived from the binding portion of the receptor, where it interacts with the Cys-Ser-Val-Thr-Cys-Gly (SEQ ID NO: 1) portion of the TSP-1 protein. The third peptide is a control.

receptor-TSP-1 complex [1] = assay: Affinity Sensor System: peptide competition of receptor binding to immobilized TSP-1; details: peptide:receptor 1000 and 100 molar ratio
Method: as §1, §2, §3

B16-F10 Melanoma Cells = assay: Cell adhesion to immobilized receptor peptides; assay type: cell-based, mouse; details: Example 12, FIG. 14
Method: For the adhesion assay, in a 96 well plate, duplicate wells were covered with either TSP-1 (40 μg/ml), fibronectin (40 μg/ml), or and 1% bovine serum albumin (BSA). The wells were dried out overnight and then blocked with BSA. 100 μl of a suspension containing 2×10^5 cells were plated in the protein covered wells and incubated at 37^□ C. for 20 minutes to 1 hour. The non-adherent cells were removed and the wells were washed with a Hepes buffer. The adherent cells were fixed with 2.5% glutaraldehyde for 10 minutes and stained with 0.2% Giemsa. The stain was washed off and the cells were counted in a field of 1 mm square. Cells adhering to BSA were considered background while cells adhering to fibronectin were the positive control.
The method of Example 12 was followed except the receptor peptides Val-Cys-His-Ser-Lys-Thr-Arg (SEQ ID NO: 8) and Val-Cys(Acm)-His-Ser-Lys-Thr-Arg (SEQ ID NO: […]) were immobilized on the plates. TSP-1 and fibronectin were also immobilized on plates, as well as negative control peptides (Ala-Ser-Val-Thr-Ala-Arg (SEQ ID NO: 11) and Pro-His-Ser-Arg-Asn (SEQ ID NO: 10)) and bovine serum albumin. […] This provides support for the theory that another protein may be associated with TSP-1 and its receptor, or that the receptor is released and rebound to the membrane of the cell by another protein.

[2] = target: T1, biotin-angiocidin complex binding to TSP-1 (Homo sapiens, UniProt P55036, INS254GER); assay: Biotin-avidin receptor binding assay: competition; details: Example 25, peptide 1 mg/ml, FIG. 32
T1 sequence (P55036 with tags, fused parts or gaps INS254GER): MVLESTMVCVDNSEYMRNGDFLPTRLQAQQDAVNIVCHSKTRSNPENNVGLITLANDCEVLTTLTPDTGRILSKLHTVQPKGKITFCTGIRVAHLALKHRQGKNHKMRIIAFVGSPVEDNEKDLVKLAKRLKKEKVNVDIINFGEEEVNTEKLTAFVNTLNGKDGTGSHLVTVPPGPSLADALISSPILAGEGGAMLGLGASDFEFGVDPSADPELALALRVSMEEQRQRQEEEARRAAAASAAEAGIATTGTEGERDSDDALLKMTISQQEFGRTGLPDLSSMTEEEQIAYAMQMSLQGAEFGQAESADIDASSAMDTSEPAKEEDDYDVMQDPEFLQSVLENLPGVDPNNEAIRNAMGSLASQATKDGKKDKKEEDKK
Method: In the following experiments, TSP-1 was covalently bound to a substrate, biotinylated angiocidin was added to the plate, and avidin-peroxidase was added to measure how much biotinylated angiocidin was attached to the TSP-1. The avidin-peroxidase was measured using a spectrophotometer at an absorbance of 450 nm.
Free angiocidin was added to the system to compete with the biotinylated angiocid in. […] Immobilized BSA was used as a negative control.
The TSP-1 peptide Cys-Ser-Val-Thr-Cys-Gly (SEQ ID NO: 1) was added to the system to compete with the TSP-1 on the plate for binding with the biotinylated angiocidin. The scrambled peptide Val-Cys-Thr-Gly-Ser-Cys (SEQ ID NO: 15) was used as a negative control and had no effect.
The avidin-biotin system discussed above was used to evaluate the competitive effect of various peptides on the binding of TSP-1 and angiocidin. […] The scrambled peptide Val-Cys-Thr-Gly-Ser-Cys-Gly (SEQ ID NO: 21) and the d-orientation peptide d-Cys-Ser-Val-Thr-Cys-Gly (SEQ ID NO: 22) were used as negative controls.

receptor-TSP-1 complex [3] = target: T2, receptor-TSP-1 complex (Homo sapiens, UniProt P55036, INS254GER); assay: Affinity Sensor System: peptide competition of receptor binding to immobilized TSP-1; details: 10 fold molar excess of peptide
T2 construct: Full length cDNA cloned in the PBK-CMV vector was used as a template; 6xHis (pTrcHisA leader) (N); made in house; host or cells: bacteria (pTrcHisA vector)
T2 sequence (P55036 with tags, fused parts or gaps INS254GER): T1 sequence (P55036 with tags, fused parts or gaps INS254GER)
Method: as §1, §2, §3

receptor = target: T3, receptor (Homo sapiens, UniProt P55036, INS254GER); assay: Affinity Sensor System: receptor binding to TSP-1 and Cys(Acm)-Ser-Val-Thr-Cys(Acm)-Gly; details: Example 8, FIG. 11
T3 construct: Full length cDNA cloned in the PBK-CMV vector was used as a template; 6xHis (pTrcHisA leader) (N); made in house; host or cells: bacteria (pTrcHisA vector)
T3 sequence (P55036 with tags, fused parts or gaps INS254GER): T1 sequence (P55036 with tags, fused parts or gaps INS254GER)
Method: as §1
The methodology set forth in Example 6 was followed except that TSP-1 and Cys(Acm)-Ser-Val-Thr-Cys(Acm)-Gly (SEQ ID NO: 6) were immobilized on cuvettes and the receptor was added to the cuvettes. The Acm version of the peptide was used to increase its stability in the experiment.

[4] = tested on: human umbilical vein endothelial cells (HUVEC); assay: ALAMAR BLUE cell viability assay; assay type: cell-based
Method: (§4) Bovine aortic endothelial cells (BAEC), human umbilical vein endothelial cells (HUVEC), fibroblast cells, A549 human lung carcinoma cells (A549), MDA-MB231 human breast carcinoma cells (MB231), MCF7 human breast carcinoma cells (MCF7) were treated with 37 μg/ml of receptor, or buffer alone, for 24 hours. Viability of the cells was measured using the ALAMAR BLUE™ assay, which measures the capacity of cells to metabolize the ALAMAR BLUE™ dye. The ALAMAR BLUE™ assay (available from Biosource International, Camarillo, Calif.) quantitatively measures the proliferation of cell lines and can establish the relative cytotoxicity of chemical agents. The assay incorporates a fluorometric/colorimetric growth indicator based on detection of metabolic activity. The system incorporates an oxidation-reduction (redox) indicator that both fluoresces and changes color in response to chemical reduction of growth medium resulting from cell growth. This causes the redox indicator to change from its oxidized, non-fluorescent, blue form to its reduced, fluorescent, red form. Data can be collected using either fluorescence-based instrumentation (530-560 nm excitation wavelength and 590 nm emission wavelength) or absorbance-based instrumentation (570 nm and 600 nm).
Similarly, the effect of receptor on viability of BAEC cells was compared to mouse Lewis lung carcinoma cells, using the same method.
The effect of angiocidin on HUVEC cell viability was evaluated, and FGF and TSP-1 were added to determine whether they ameliorated the angiocidin effect on cell viability. FGF (Fibroblast Growth Factor) is an endothelial cell mitogen, which promotes cell growth. […] TSP-1 was expected to reverse the inhibition of angiocidin; however, quantities added may have been insufficient to provide the correct molar ratio.

[5] = tested on: Bovine aortic endothelial cells (BAEC); assay: ALAMAR BLUE cell viability assay; assay type: cell-based; details: TSP-1 at 20 μg/ml and 5 μg/ml
Method: as §4
BAEC and BSM cells were treated with increasing concentrations of angiocidin (0, 0.625, 1.25, 2.5, 5, 15, 26 and 37 μg/ml) for 24 hours. Cell viability was measured using the ALAMAR BLUE Tm assay. […] In contrast, BSM cells are unaffected.
The methods of Example 21 were followed, except BAEC cells were used. Additionally, TSP-1 was added at both 20 μg/ml and 5 μg/ml.
As discussed in Example 19 above, angiocidin was added to BAEC cells. Fragments of angiocidin were added as well. […] GST was used as a negative control. V36-R42, the active site of the antisecretory factor, had no effect, illustrating that angiocidin plays a different role from antisecretory factor.
Bovine aortic endothelial cells (BAEC) were cultured overnight in serum-free media containing either 37 μg/ml his-tagged angiocidin or his-tagged GST. Both angiocidin and GST were expressed in bacteria transformed with the pTrcHisA expression vector and purified on nickel affinity chromatography under non-denaturing conditions. Viability was measured by the ALAMAR BLUE™ assay.
This study examined the effect of anti-angiocidin antibody on angiocidin-mediated inhibition of BAEC viability. BAEC were cultured overnight in serum-free media containing either 5 μg/ml angiocidin, 5 μg/ml angiocidin plus 100 μg/ml control IgG, or 5 μg/ml angiocidin plus 100 μg/ml anti-angiocidin IgG. Viability was measured using the ALAMAR BLUE™ assay, described above.
The endothelial cells (BAEC) were incubated overnight 37 μg/ml of the angiocidin, fragments, and GST. Viability was measured using the ALAMAR BLUE™ assay.

Sequence of TSP-1 (P07996 19-1170): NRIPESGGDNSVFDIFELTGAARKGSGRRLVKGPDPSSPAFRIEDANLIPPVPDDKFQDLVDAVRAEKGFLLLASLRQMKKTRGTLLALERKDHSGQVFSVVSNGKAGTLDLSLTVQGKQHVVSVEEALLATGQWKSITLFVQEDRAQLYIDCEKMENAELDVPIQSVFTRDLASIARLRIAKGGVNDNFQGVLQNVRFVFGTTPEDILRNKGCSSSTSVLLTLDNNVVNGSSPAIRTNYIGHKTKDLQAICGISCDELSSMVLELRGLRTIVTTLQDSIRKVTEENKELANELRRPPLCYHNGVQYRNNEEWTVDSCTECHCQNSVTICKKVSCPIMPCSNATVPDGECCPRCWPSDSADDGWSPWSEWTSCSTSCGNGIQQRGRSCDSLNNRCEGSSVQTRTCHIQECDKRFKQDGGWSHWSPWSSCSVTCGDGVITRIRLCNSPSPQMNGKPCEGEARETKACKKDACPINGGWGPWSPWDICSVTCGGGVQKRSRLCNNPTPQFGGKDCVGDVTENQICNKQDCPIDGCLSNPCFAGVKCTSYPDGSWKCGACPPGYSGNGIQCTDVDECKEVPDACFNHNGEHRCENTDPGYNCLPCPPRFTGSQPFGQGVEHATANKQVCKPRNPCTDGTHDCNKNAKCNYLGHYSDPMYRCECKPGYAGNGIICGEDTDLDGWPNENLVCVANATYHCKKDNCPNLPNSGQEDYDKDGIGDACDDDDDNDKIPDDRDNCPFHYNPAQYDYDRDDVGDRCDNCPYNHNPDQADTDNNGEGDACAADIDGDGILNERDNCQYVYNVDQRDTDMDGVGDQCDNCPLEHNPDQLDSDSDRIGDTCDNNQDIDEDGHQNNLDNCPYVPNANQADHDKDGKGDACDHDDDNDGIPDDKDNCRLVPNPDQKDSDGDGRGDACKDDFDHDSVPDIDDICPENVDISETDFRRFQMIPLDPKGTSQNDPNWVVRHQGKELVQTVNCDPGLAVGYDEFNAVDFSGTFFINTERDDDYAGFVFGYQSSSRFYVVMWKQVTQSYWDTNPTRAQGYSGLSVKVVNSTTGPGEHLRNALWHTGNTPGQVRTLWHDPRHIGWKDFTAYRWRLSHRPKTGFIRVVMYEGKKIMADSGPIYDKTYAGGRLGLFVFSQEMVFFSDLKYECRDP

| Substance | direct binding to immobilized TSP-1 (TSP-1) | inhibition of receptor binding to immobilized TSP-1 (receptor-TSP-1 complex [1]) | cell adhesion to immobilized peptide (B16-F10 Melanoma Cells) | peptide competition of TSP-1 receptor binding [2] | extent of receptor binding, % of buffer control (receptor-TSP-1 complex [3]) | binding to the receptor (receptor) | cell growth, factor alone ([4]; FGF 2 ng/ml, TSP-1 20 μg/ml) | reversal of the angiocidin inhibition of viability ([4]; angiocidin 37 μg/ml plus FGF 2 ng/ml or TSP-1 20 μg/ml) | reversal of the angiocidin inhibition of viability [5] |
| --- | --- | --- | --- | --- | --- | --- | --- | --- | --- |
| VCHSKTR | bind directly to the immobilized TSP-1 | inhibits binding of the receptor with the immobilized TSP-1 | cause the cells to adhere to the plates, with similar affinity to the positive controls fibronectin and TSP-1 | – | – | – | – | – | – |
| Cys(Acm)-Ser-Val-Thr-Cys(Acm)-Gly (C(Acm)SVTC(Acm)G) | – | – | – | inhibited binding | 47% | bind to the receptor | – | – | – |
| TSP-1: Thrombospondin, a cell adhesive protein and matrix molecule | – | – | – | – | – | bind to the receptor | stimulated cell growth above control | neither the addition of FGF or TSP-1 reversed the inhibition of angiocidin | can ameliorate some of the inhibition of angiocidin |
